Test results: the RNAGym collection of RNA variant scans (doi:10.1073/pnas.2313332121)

B1: TPR t1 (parent)
chain: GACCAAUCUGCCCUCAGAGCUCGAGAACAUCUUCGGAUGCAGAGGAGGCAGGCUUCGGUGGCGCGAUAGCGCCAACGUCCUCAACCUCCAAUGCAUCCCACCACAUGAUGAUGCCUGAAGAGCCUUGGUUUUUUG

Variants of: B1
Test: polymerase ribozyme fitness, log enrichment relative to wild type (log ratio); higher = more active; in vitro selection for triplet polymerase activity
Method in brief: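 Each subunit of a heterodimeric triplet polymerase ribozyme was represented by a PCR-built, transcribed mutant library that underwent triplicate single-round in vitro selection with frozen incubation at −7 °C. Extended constructs were recovered by gel excision, streptavidin-bead capture and RT-PCR, and Illumina sequencing of input and output libraries kept genotypes with ≥10 input reads and ≥1 read per output. Fitness is the logarithm of genotype enrichment relative to wild-type enrichment, from inverse-variance-weighted replicate averages, with a logarithm base of 2.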

| Variant | polymerase ribozyme fitness (log ratio) |
| --- | --- |
| U59A | 0.0811 |
| U59C | -0.0998 |
| U59G | -0.0797 |
| G60A U109A U133G | -5.4 |
| G60A A105G G120U U133G G135U | -3.99 |
| U59A G71A C101U C124A | 1.02 |
| U59A G113U | -2.9 |
| U59A A83U G93A | -0.452 |
| U59G A111G | 0.731 |
| G58U U59A A74U C88A | -0.539 |
| U59A U92C | -1.76 |
| G58C A95G U109A | -5.73 |
| U59G C80A A121C | -0.276 |
| G60A U129A | -0.603 |
| U59A C70U U112A | 0.172 |
| U59A C72A | -1.18 |
| U59C G61C | -3.23 |
| G60C G93C G120A U126C | -0.901 |
| G58C G63C C82A U106G G113U | -5.77 |
| G60A G113C | -2.12 |
| G60C C64U | -5.26 |

| Variant | polymerase ribozyme fitness (log ratio) |
| --- | --- |
| G60C G71U G120U U130G | -5.39 |
| G60A A66U A111C | -2.41 |
| U59C A91U | -2.41 |
| G58C C101U | -0.386 |
| G60A U125G | -0.67 |
| G60A C82U U131A | -0.161 |
| U59C U87A | -0.642 |
| U59C G120C G128U U130A | 1.03 |
| G60A U81G A91G U116C | -7.03 |
| U59C G110U | -1.54 |
| U59C C88U | -0.959 |
| G60A C79A G110A | -3.84 |
| G60A U78A A84U G93A C102A | -5 |
| U59G G117U U131G | -4.31 |
| G60A A118C | -3.63 |
| G60A U109A | -5.33 |
| G60A | -0.00692 |
| G60C | -0.366 |
| G60U | 0.0514 |
| U59G A66C C101G A121C U132C | -2.35 |
| U59A A121C | 2.1 |

| Variant | polymerase ribozyme fitness (log ratio) |
| --- | --- |
| G58U A111C | -0.00673 |
| U59A A74G C114G U126A G128A | -3.97 |
| G58C C73A U81A C89A | -3.31 |
| G60C U96A | -1.77 |
| G60A G71U | -4.5 |
| G58C C62U C114A G127A U130G | -5.36 |
| G60A C82G C101U G120A G128U | -2.12 |
| G60C C94G U116C C123U | -3.28 |
| G58C C98A | -5.61 |
| G58U C94U C101G | -1.75 |
| G60A C86A U131C | -1.16 |
| G60A C94A G110U | -3.31 |
| G58C C80A U96G | -4.46 |
| G58A U125A | -0.652 |
| G60C U81C | -0.172 |
| G58C G71U C82G C88G | -2.93 |
| G60A A121G | 1.66 |
| G60U A91G C123U | -0.372 |
| U59A A105G G113A U130C G135U | -5.1 |
| U59G C86U | 0.709 |
| U59C U109G | -5.76 |

| Variant | polymerase ribozyme fitness (log ratio) |
| --- | --- |
| U59A U126C | -1.31 |
| G60U C70A C114U | -7.08 |
| G60C G127U | -0.837 |
| G58U C115A | -0.324 |
| G60A C80U C89U U129G | -3.44 |
| G58C C123G G128A | 0.535 |
| G60A C115A G120U | -0.811 |
| G60U C62U G117U | -5.73 |
| G58C C85U G120A | 0.436 |
| G60U C62U U78G C80A U112C | -1.42 |
| U59C C123U | 1.16 |
| G60U A95G C115G | -2.25 |
| G60A C124U | 1.27 |
| G60A C124A | 1.81 |
| U59A C89A C101U G113U | -3.68 |
| G60A U78G G113C U133G | -3.73 |
| U59C U81C U106A | -0.294 |
| U59A C82G | -0.809 |
| U59A C82U | -0.407 |
| G60A C88G G120C | -0.823 |
| G60A C115A G117A | -4.99 |
